This sample holds only a part of the variants without activity.
Key:
biotinyl-Ile-oxazolone = test: self-aminoacylation, catalytic enhancement (BIO) (fold over background); higher = more active; k-Seq, kA / k0A0; sequences stand for … in GGGAAUGGAUCCACAUCUACGAAUUC…UUCACUGCAGACUUGACGAAGCUG
In short: (§1)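 The uncatalyzed rate is the low-activity peak of a bimodal Gaussian fit, and catalytic enhancement is median kA divided by it. The kA values came from pseudo-first-order fits, with 1000 bootstraps, of per-sequence fraction reacted measured by streptavidin capture, triplicate qPCR and Illumina sequencing. Mutagenized RNA pools with a 21-nt variable region (0.43 μM) were reacted with each biotinyl-aminoacyl-oxazolone at 2–1250 μM in 50 μL HEPES/NaCl/KCl/MgCl2/CaCl2 buffer with 5% acetonitrile, pH 6.9–7.0, for 90 minutes at room temperature.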

biotinyl-Val-oxazolone = test: self-aminoacylation, catalytic enhancement (BVO) (fold over background); higher = more active; k-Seq, kA / k0A0; sequences stand for … in GGGAAUGGAUCCACAUCUACGAAUUC…UUCACUGCAGACUUGACGAAGCUG
In short: as §1

biotinyl-Leu-oxazolone = test: self-aminoacylation, catalytic enhancement (BLO) (fold over background); higher = more active; k-Seq, kA / k0A0; sequences stand for … in GGGAAUGGAUCCACAUCUACGAAUUC…UUCACUGCAGACUUGACGAAGCUG
In short: as §1

biotinyl-Trp-oxazolone = test: self-aminoacylation, catalytic enhancement (BWO) (fold over background); higher = more active; k-Seq, kA / k0A0; sequences stand for … in GGGAAUGGAUCCACAUCUACGAAUUC…UUCACUGCAGACUUGACGAAGCUG
In short: as §1

biotinyl-Met-oxazolone = test: self-aminoacylation, catalytic enhancement (BMO) (fold over background); higher = more active; k-Seq, kA / k0A0; sequences stand for … in GGGAAUGGAUCCACAUCUACGAAUUC…UUCACUGCAGACUUGACGAAGCUG
In short: as §1

biotinyl-Phe-oxazolone = test: self-aminoacylation, catalytic enhancement (BFO) (fold over background); higher = more active; k-Seq, kA / k0A0; sequences stand for … in GGGAAUGGAUCCACAUCUACGAAUUC…UUCACUGCAGACUUGACGAAGCUG
In short: as §1

Row | Sequence | self-aminoacylation (biotinyl-Ile-oxazolone) | self-aminoacylation (biotinyl-Val-oxazolone) | self-aminoacylation (biotinyl-Leu-oxazolone) | self-aminoacylation (biotinyl-Trp-oxazolone) | self-aminoacylation (biotinyl-Met-oxazolone) | self-aminoacylation (biotinyl-Phe-oxazolone)
1 | AUGAACCUGGUCAUCGAGUGA [Fam2.1 aminoacylation ribozyme variant] | 3.31 | 3.17 | 6.61 | 6.4 | 5.7 | 5.16
2 | AUAACCCUGGUCAUCGAGCGA [Fam2.1 aminoacylation ribozyme variant] | 1.62 | 1.59 | 2.88 | 1.52 | 1.58 | 1.91
3 | AUUACGCUGGACAUCGAGUGA [Fam2.1 aminoacylation ribozyme variant] | 2.63 | 2.98 | 4.51 | 4.65 | 4.42 | 16.1
4 | AUUCACCUAGGUCAUCAGGCG [Fam2.2 aminoacylation ribozyme variant] | 1.26 | 1.32 | 1.54 | 1.87 | 1.47 | 1.02
5 | AUUGACCUAGUUCAUCGGGUG [Fam2.2 aminoacylation ribozyme variant] | 2.62 | 2.59 | 3.62 | 4.08 | 3.19 | 18.6
6 | AUUGACCUAGGUCAUCGGGUU [Fam2.2 aminoacylation ribozyme variant] | 7.25 | 6.49 | 18.8 | 12.2 | 13.9 | 98.6
7 | AUUCACCUAGCUCAUUGGGUG [Fam2.2 aminoacylation ribozyme variant] | 1.44 | 1.69 | 1.62 | 2.07 | 1.89 | 5.14
8 | AUUCUUCUAGGUCAUCGGGUG [Fam2.2 aminoacylation ribozyme variant] | 4.52 | 5.28 | 9.07 | 6.98 | 7.87 | 50.3
9 | CUUCUUAAAACAAUCGGUCUG [Fam1A.1 aminoacylation ribozyme variant] | 0.859 | 0.748 | 0.739 | 0.564 | 0.895 | 0.699
10 | AAGACCCUGGUCAUCGAGUGA [Fam2.1 aminoacylation ribozyme variant] | 4.58 | 4.66 | 10.2 | 9.36 | 9.05 | 21.6
11 | AUUCACCUAAGUCAUCGGCUG [Fam2.2 aminoacylation ribozyme variant] | 1.52 | 1.58 | 1.63 | 0.999 | 1.55 | 5.86
12 | AUUCACCUAGGCCUUCGGGUG [Fam2.2 aminoacylation ribozyme variant] | 2.49 | 3.43 | 5.19 | 3.83 | 3.67 | 19.9
13 | CCACACUUAAAGCAAUCGGUG [Fam1B.1 aminoacylation ribozyme variant] | 2.75 | 2.42 | 4.31 | 4.42 | 3.87 | 26
14 | ACGUUUGCGAAUAGUCGCAAG [Fam3.1 aminoacylation ribozyme variant] | 1.97 | 1.45 | 1.85 | 2.17 | 1.58 | 3.56
15 | AUCACCCUGGUCAUCCAGUGA [Fam2.1 aminoacylation ribozyme variant] | 4.34 | 3.61 | 7.91 | 6.77 | 6.56 | 41.2
16 | ACUACCCUGGACAUCGAGUGA [Fam2.1 aminoacylation ribozyme variant] | 2.55 | 2.92 | 6.83 | 7.37 | 7.03 | 20.6
17 | AUUCCCCUAGGUUAUCGGGUG [Fam2.2 aminoacylation ribozyme variant] | 12.9 | 13.3 | 27.6 | 20 | 20 | 187
18 | AUUCACCUAGGUCACCGCGUG [Fam2.2 aminoacylation ribozyme variant] | 7.2 | 6.86 | 18.1 | 10.9 | 12.6 | 85.2
19 | UUUCACCUAGGUCAUCGGGAG [Fam2.2 aminoacylation ribozyme variant] | 1.68 | 1.35 | 1.82 | 2.02 | 1.73 | 1.4
20 | CUACUUCAAACAACCGGUAUG [Fam1A.1 aminoacylation ribozyme variant] | 0.785 | 0.805 | 0.803 | 0.873 | 0.707 | 0.739
21 | AUUGACCUGGGUCAUCGGGUG [Fam2.2 aminoacylation ribozyme variant] | 12.2 | 13.5 | 29.6 | 24.1 | 25.9 | 107
22 | AUUACCCUAGUCAGCGAGUGA [Fam2.1 aminoacylation ribozyme variant] | 3.38 | 3.38 | 5.18 | 6.79 | 5.1 | 23.4
23 | GCACACUUCUAGCAAUCGGUC [Fam1B.1 aminoacylation ribozyme variant] | 1.2 | 1.22 | 0.999 | 1.28 | 0.936 | 1.34
24 | CCACACUUCAAUCAGUCGGUC [Fam1B.1 aminoacylation ribozyme variant] | 0.963 | 0.796 | 0.723 | 0.687 | 0.815 | 0.869
25 | AGCCACCUAGGUCAUCGGGUG [Fam2.2 aminoacylation ribozyme variant] | 6.24 | 6.3 | 8.17 | 10.3 | 7.16 | 81.6
26 | CUACUUGAAACAAUCGGCCUG [Fam1A.1 aminoacylation ribozyme variant] | 1.84 | 1.68 | 1.45 | 1.38 | 1.96 | 0.788

Row | Sequence | self-aminoacylation (biotinyl-Ile-oxazolone) | self-aminoacylation (biotinyl-Val-oxazolone) | self-aminoacylation (biotinyl-Leu-oxazolone) | self-aminoacylation (biotinyl-Trp-oxazolone) | self-aminoacylation (biotinyl-Met-oxazolone) | self-aminoacylation (biotinyl-Phe-oxazolone)
27 | AAGCUUGCCAAUAGUCGCAAG [Fam3.1 aminoacylation ribozyme variant] | 2.31 | 2.42 | 2.23 | 3.62 | 2.48 | 3.44
28 | CCAAGCUUCAAGCAAUCGGUC [Fam1B.1 aminoacylation ribozyme variant] | 1.35 | 1.3 | 2.5 | 44.9 | 1.51 | 86.5
29 | CUACUUCAAACGAUCGGGCUG [Fam1A.1 aminoacylation ribozyme variant] | 1.49 | 1.45 | 1.23 | 1.28 | 1.09 | 1.11
30 | CCACACUUCAAGGAAUCGGUU [Fam1B.1 aminoacylation ribozyme variant] | 1.34 | 1.57 | 1.43 | 1.16 | 1.39 | 0.969
31 | CUUCUUCAAUCAAUCGGUCUG [Fam1A.1 aminoacylation ribozyme variant] | 0.975 | 0.956 | 1.21 | 11.3 | 0.986 | 18.9
32 | CCACACAUCAAGCCAUCGGUC [Fam1B.1 aminoacylation ribozyme variant] | 1.19 | 1.27 | 1.01 | 0.895 | 1.04 | 1.07
33 | AUUACCCUGCUCAUCGAGUGG [Fam2.1 aminoacylation ribozyme variant] | 0.831 | 0.81 | 1.09 | 0.578 | 1 | 0.52
34 | AAGGUUGCUAAUCGUCGCAAG [Fam3.1 aminoacylation ribozyme variant] | 1.27 | 1.2 | 1.09 | 2.14 | 1.07 | 3.36
35 | AAAUUUGCUAAUAGUCGCUAG [Fam3.1 aminoacylation ribozyme variant] | 1.73 | 1.58 | 1.38 | 2.84 | 1.22 | 2.81
36 | CCACACUUCAAGCUAUCGGCC [Fam1B.1 aminoacylation ribozyme variant] | 1.62 | 1.51 | 1.82 | 1.81 | 1.7 | 0.862
37 | CUACUUCAAACAAUCUGUUUG [Fam1A.1 aminoacylation ribozyme variant] | 0.788 | 0.838 | 0.76 | 0.635 | 0.713 | 0.912
38 | AUUCAACUAAGUCAUCGGGUG [Fam2.2 aminoacylation ribozyme variant] | 4.92 | 4.13 | 10.7 | 7.24 | 7.12 | 69.4
39 | CCACUCUUCAAGCCAUCGGUC [Fam1B.1 aminoacylation ribozyme variant] | 1.09 | 1.21 | 1.15 | 0.953 | 1.1 | 0.734
40 | CUACUUUAAUCAAUCGGUCUG [Fam1A.1 aminoacylation ribozyme variant] | 0.955 | 0.915 | 0.78 | 0.755 | 0.892 | 1.43
41 | AUUCACCUAGGUCAUCGUGUG [Fam2.2 aminoacylation ribozyme variant] | 0.867 | 0.932 | 1.07 | 0.654 | 0.951 | 2.56
42 | CUACUUCAAACAAUCAGUCCG [Fam1A.1 aminoacylation ribozyme variant] | 0.632 | 0.783 | 0.623 | 4.05 | 0.753 | 10.8
43 | AUUCACCUAGUUCAUCGUGUG [Fam2.2 aminoacylation ribozyme variant] | 0.937 | 1.11 | 1.25 | 1.1 | 1.2 | 4.05
44 | AUUCCCCUAGGUCAUCGGUUG [Fam2.2 aminoacylation ribozyme variant] | 3.4 | 3.38 | 3.94 | 2.16 | 3.19 | 11.7
45 | CUACUUCAAACAACCUGUCUG [Fam1A.1 aminoacylation ribozyme variant] | 0.74 | 0.736 | 0.589 | 0.325 | 0.52 | 0.494
46 | CUACUUCAAGCACUCGGUCUG [Fam1A.1 aminoacylation ribozyme variant] | 1.23 | 1.3 | 1.17 | 1.28 | 0.971 | 2.08
47 | CAACACUUCAAGCAAUCUGUC [Fam1B.1 aminoacylation ribozyme variant] | 0.399 | 0.502 | 0.362 | 0.398 | 0.396 | 0.588
48 | AUUACCCUGGUCGCCGAGUGA [Fam2.1 aminoacylation ribozyme variant] | 3.48 | 2.58 | 5.59 | 4.48 | 4.14 | 22.8
49 | AUUACCCGGGUCUUCGAGUGA [Fam2.1 aminoacylation ribozyme variant] | 4.5 | 4.57 | 8.21 | 8.46 | 7.15 | 44.4
50 | ACGUUUACUAAUAGUCGCAAG [Fam3.1 aminoacylation ribozyme variant] | 1.56 | 1.53 | 1.8 | 1.41 | 1.35 | 2.57
51 | AGAUUUGCUAAUAGUCGCAAG [Fam3.1 aminoacylation ribozyme variant] | 1.91 | 1.8 | 2.39 | 1.88 | 1.58 | 2.47
